Laboratory results reported in paper PMC8058080.

Biological target: Acaryochloris marina photosystem I (PSI) monomer, 11 subunits (PsaA, PsaB, PsaC, PsaD, PsaE, PsaF, PsaJ, PsaK, PsaL, PsaM, Psa27) (Acaryochloris marina) (UniProt B0C474)
Assay: cryo-EM structure; PSI trimer purified from A. marina; 50 mM MES-NaOH pH 6.5, 5 mM CaCl2, 10 mM MgCl2, 0.002% LMNG; 2.58 Å with C3 symmetrization, 2.97 Å without

- stoichiometry N: 3
Substance: Acaryochloris marina photosystem I (PSI) monomer, 11 subunits (PsaA, PsaB, PsaC, PsaD, PsaE, PsaF, PsaJ, PsaK, PsaL, PsaM, Psa27) (from UniProt B0C474 1-753; B0C475 1-736; B0CB42 1-81; B0C8F1 1-139; B0C5D5 1-89; B0C7S7 1-167; B0C7S6 1-51; B0C7S4 1-153; B0C4H4 1-31) (complex)
